Source: patent US12281147

Columns and labels:
[1] = target: human interleukin 21 receptor (IL-21R) (human) (UniProt Q9HBE5); assay: AlphaSeq yeast mating assay, pH 5 media
[2] = target: human interleukin 21 receptor (IL-21R) (human) (UniProt Q9HBE5); assay: AlphaSeq yeast mating assay, unbuffered media
[3] = target: human interleukin 21 receptor (IL-21R) (human) (UniProt Q9HBE5); assay: AlphaSeq yeast mating assay, pH 7 media
[4] = target: human interleukin 21 receptor (IL-21R) (human) (UniProt Q9HBE5); assay: AlphaSeq yeast mating assay, pH 6 media
[5] = target: recombinant human IL-21R His tag (Acro Biosystems) (human) (UniProt Q9HBE5); assay: BLI
[6] = target: mouse IL-21R, His-tagged (BLI antigen) (mouse) (UniProt Q9JHX3); assay: BLI
[7] = target: mouse IL-21R on T cells of mouse splenocytes (mouse) (UniProt Q9JHX3); assay: cell-based or functional assay
[8] = target: human IL-21R on T cells of primary human PBMCs (human) (UniProt Q9HBE5); assay: cell-based or functional assay

Kd [1] [nM]	Kd [2] [nM]	Kd [3] [nM]	Kd [4] [nM]	Substance	other results
150	390	–	–	IL-21_R34M (from UniProt Q9HBE4 32-152) (ligand)	–
60	190	–	–	IL-21_P107D (from UniProt Q9HBE4 32-152) (ligand)	–
40	–	60	15	IL-21_S77M (from UniProt Q9HBE4 32-152) (ligand)	–
–	–	–	–	IL-21_human_P108L Fc fusion protein (from UniProt Q9HBE4 30-162)	Kd [5]: 3.21 nM; Kd [6]: 11.8 nM; Mouse T cell EC50 (pM), pSTAT3 phosflow [7]: 71000 pM
–	350	140	26	IL-21_R34T (from UniProt Q9HBE4 32-152) (ligand)	–
140	450	57	48	IL-21_R114F (from UniProt Q9HBE4 32-152) (ligand)	–
140	–	35	27	IL-21_R94S (from UniProt Q9HBE4 32-152) (ligand)	–
–	450	–	–	IL-21_S142D (from UniProt Q9HBE4 32-152) (ligand)	–
–	55	57	15	IL-21_R115P (from UniProt Q9HBE4 32-152) (ligand)	–
–	–	–	–	IL-21_human_Y52Q Fc fusion protein (from UniProt Q9HBE4 30-162)	Kd [5]: 14.4 nM; Kd [6]: 19.4 nM; Mouse T cell EC50 (pM), pSTAT3 phosflow [7]: 9200 pM; Human T cell EC50 (pM), pSTAT3 phosflow [8]: 8.7 pM
–	–	–	–	IL-21_human_R34S Fc fusion protein (from UniProt Q9HBE4 30-162)	Kd [5]: 31.5 nM; Kd [6]: 28.7 nM; Mouse T cell EC50 (pM), pSTAT3 phosflow [7]: 8500 pM; Human T cell EC50 (pM), pSTAT3 phosflow [8]: 5.6 pM
360	150	–	–	IL-21_H118I (from UniProt Q9HBE4 32-152) (ligand)	–
210	–	80	27	IL-21_R94T (from UniProt Q9HBE4 32-152) (ligand)	–
20	250	140	11	IL-21_N51E (from UniProt Q9HBE4 32-152) (ligand)	–
–	–	–	–	IL-21_human_S74H Fc fusion protein (from UniProt Q9HBE4 30-162)	Kd [5]: 12.3 nM; Mouse T cell EC50 (pM), pSTAT3 phosflow [7]: 1900 pM; Human T cell EC50 (pM), pSTAT3 phosflow [8]: 3.6 pM
–	–	–	–	IL-21_human_D33P Fc fusion protein (from UniProt Q9HBE4 30-162)	Kd [6]: 19.8 nM; Mouse T cell EC50 (pM), pSTAT3 phosflow [7]: 1800 pM
–	–	58	–	IL-21_L120Y (from UniProt Q9HBE4 32-152) (ligand)	–
200	210	–	–	IL-21_K106T (from UniProt Q9HBE4 32-152) (ligand)	–
–	–	–	–	IL-21_human_W73L Fc fusion protein (from UniProt Q9HBE4 30-162)	Kd [5]: 22.8 nM; Kd [6]: 19.9 nM; Mouse T cell EC50 (pM), pSTAT3 phosflow [7]: 6900 pM
–	–	56	11	IL-21_R115Q (from UniProt Q9HBE4 32-152) (ligand)	–
41	560	59	–	IL-21_H35P (from UniProt Q9HBE4 32-152) (ligand)	–
–	120	550	–	IL-21_K106E (from UniProt Q9HBE4 32-152) (ligand)	–
100	330	77	–	IL-21_R34L (from UniProt Q9HBE4 32-152) (ligand)	–
140	260	50	35	IL-21_R115I (from UniProt Q9HBE4 32-152) (ligand)	–
–	–	–	–	IL-21_human_E72S Fc fusion protein (from UniProt Q9HBE4 30-162)	Kd [6]: 7.75 nM; Mouse T cell EC50 (pM), pSTAT3 phosflow [7]: 47000 pM; Human T cell EC50 (pM), pSTAT3 phosflow [8]: 31 pM
